Assay results from the supplement of paper PMC10065799, “High-throughput profiling of sequence recognition by tyrosine kinases and SH2 domains using bacterial peptide display” (eLife, 2023).

Assays:
AncSZ = assay: phosphorylation enrichment, bacterial display (enrichment ratio); higher = better substrate or ligand; peptides without Tyr show the background
EPHB1 = EPHB1 (UniProt P54762); assay: as above
EPHB2 = EPHB2 (UniProt P29323); assay: as above
FGFR1 = FGFR1 (UniProt P11362); assay: as above
FGFR3 = FGFR3 (UniProt P22607); assay: as above
FGFR3, sequence (P22607 whole entry, looked up): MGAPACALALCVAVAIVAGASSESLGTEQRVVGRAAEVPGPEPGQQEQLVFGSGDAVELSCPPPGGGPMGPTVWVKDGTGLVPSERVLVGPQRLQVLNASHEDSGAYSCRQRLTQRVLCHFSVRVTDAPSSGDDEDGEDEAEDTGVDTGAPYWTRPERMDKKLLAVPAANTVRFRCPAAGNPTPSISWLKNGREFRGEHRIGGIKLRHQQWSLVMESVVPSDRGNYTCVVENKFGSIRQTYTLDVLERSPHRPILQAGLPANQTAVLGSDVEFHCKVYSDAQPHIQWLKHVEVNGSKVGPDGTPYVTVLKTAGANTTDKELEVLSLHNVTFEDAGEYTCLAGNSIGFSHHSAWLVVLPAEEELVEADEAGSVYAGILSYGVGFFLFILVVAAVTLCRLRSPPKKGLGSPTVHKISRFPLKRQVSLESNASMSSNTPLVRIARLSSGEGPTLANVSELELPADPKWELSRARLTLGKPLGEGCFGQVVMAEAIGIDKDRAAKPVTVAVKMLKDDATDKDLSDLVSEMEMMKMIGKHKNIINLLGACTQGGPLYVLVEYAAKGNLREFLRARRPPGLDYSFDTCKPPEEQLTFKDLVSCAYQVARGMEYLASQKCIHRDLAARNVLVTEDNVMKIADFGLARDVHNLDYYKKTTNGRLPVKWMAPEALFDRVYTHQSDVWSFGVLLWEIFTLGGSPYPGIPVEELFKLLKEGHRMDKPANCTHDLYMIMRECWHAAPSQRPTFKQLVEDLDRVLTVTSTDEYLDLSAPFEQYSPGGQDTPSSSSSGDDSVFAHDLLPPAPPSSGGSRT

Fer (mouse) = assay: as above
Fes = Fes (UniProt P07332); assay: as above
Fes, sequence (P07332 whole entry, looked up): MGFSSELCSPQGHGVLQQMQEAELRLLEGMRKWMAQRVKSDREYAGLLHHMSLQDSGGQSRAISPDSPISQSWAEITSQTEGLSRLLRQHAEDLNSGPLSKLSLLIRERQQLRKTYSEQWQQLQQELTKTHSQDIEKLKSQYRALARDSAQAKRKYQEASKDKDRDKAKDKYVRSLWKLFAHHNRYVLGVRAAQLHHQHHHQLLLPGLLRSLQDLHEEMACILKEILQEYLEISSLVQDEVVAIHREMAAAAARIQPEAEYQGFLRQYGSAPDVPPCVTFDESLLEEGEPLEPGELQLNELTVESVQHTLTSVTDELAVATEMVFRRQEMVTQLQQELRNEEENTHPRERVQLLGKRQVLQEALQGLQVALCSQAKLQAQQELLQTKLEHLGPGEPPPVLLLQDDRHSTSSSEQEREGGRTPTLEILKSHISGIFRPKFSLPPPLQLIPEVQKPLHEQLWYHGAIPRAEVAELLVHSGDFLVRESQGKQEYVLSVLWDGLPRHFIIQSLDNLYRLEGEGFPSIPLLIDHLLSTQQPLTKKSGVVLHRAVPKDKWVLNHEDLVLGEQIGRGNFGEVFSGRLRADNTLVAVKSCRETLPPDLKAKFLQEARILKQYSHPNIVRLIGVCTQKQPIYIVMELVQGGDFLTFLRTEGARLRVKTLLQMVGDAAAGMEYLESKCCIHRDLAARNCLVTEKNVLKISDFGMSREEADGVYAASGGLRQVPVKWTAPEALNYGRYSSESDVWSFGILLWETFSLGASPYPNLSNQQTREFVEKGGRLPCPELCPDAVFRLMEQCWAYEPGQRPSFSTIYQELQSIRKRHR

Fyn = Fyn (UniProt P06241); assay: as above
Fyn, sequence (P06241 whole entry, looked up): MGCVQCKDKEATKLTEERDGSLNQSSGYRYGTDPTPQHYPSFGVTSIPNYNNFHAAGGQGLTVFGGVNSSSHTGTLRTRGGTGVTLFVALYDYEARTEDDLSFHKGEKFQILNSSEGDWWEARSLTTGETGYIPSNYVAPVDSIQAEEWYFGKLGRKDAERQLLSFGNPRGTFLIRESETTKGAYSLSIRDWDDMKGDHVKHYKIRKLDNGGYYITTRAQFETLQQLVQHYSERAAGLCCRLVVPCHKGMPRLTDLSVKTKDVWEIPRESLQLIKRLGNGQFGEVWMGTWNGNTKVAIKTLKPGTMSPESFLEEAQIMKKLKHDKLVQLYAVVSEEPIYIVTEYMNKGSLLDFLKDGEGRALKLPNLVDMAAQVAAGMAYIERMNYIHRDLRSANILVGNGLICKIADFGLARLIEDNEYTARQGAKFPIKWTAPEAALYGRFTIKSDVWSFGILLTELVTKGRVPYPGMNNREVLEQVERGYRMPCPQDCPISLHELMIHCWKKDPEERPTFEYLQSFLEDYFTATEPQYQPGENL

Hck = Hck (UniProt P08631); assay: as above
Hck, sequence (P08631 whole entry, looked up): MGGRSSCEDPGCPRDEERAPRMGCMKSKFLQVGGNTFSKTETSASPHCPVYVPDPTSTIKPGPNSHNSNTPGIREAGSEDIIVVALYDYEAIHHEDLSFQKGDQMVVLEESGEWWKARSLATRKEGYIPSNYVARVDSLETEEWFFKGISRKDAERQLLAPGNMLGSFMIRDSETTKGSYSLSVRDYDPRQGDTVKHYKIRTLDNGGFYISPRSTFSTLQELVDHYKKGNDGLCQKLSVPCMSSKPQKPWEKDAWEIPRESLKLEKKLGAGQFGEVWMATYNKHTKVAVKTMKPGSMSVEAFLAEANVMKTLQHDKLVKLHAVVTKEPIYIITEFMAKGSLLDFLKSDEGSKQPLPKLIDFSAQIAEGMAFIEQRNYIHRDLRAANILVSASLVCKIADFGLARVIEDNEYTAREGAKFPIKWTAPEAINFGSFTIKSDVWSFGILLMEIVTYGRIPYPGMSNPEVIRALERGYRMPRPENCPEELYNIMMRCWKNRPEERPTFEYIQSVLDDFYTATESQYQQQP

Jak2 = Jak2 (UniProt O60674); assay: as above
MERTK = MERTK (UniProt Q12866); assay: as above
MERTK, sequence (Q12866 whole entry, looked up): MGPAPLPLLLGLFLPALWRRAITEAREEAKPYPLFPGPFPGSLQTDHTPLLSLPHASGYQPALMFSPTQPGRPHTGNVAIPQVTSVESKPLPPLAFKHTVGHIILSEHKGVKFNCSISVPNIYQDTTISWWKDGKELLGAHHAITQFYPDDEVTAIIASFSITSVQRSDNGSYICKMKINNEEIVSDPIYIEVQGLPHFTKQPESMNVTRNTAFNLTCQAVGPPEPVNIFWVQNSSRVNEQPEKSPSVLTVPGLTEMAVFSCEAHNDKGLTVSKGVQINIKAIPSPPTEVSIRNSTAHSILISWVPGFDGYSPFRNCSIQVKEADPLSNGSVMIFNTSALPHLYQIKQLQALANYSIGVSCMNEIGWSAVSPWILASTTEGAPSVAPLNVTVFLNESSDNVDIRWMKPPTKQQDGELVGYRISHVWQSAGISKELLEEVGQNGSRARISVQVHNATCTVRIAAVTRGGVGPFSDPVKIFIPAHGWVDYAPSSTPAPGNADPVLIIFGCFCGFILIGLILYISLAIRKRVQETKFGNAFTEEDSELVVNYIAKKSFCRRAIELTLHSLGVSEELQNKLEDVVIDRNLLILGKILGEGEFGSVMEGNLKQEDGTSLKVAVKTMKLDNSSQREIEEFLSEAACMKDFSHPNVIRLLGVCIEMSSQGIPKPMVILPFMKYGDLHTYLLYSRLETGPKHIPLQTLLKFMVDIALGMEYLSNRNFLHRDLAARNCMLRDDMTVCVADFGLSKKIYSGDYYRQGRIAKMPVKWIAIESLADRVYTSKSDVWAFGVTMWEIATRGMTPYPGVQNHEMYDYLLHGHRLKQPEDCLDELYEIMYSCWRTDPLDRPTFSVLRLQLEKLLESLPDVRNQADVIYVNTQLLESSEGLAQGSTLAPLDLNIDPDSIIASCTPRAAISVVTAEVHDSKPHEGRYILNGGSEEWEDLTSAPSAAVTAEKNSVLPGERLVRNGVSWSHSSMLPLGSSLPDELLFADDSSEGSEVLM

c-Abl (mouse) = assay: as above
c-Src = assay: as above
Grb2 SH2 = Grb2 SH2 (UniProt P62993); assay: SH2 binding enrichment of the phosphorylated peptide, bacterial display (enrichment ratio); higher = better substrate or ligand; peptides without Tyr show the background
Grb2 SH2, sequence (P62993 whole entry, looked up): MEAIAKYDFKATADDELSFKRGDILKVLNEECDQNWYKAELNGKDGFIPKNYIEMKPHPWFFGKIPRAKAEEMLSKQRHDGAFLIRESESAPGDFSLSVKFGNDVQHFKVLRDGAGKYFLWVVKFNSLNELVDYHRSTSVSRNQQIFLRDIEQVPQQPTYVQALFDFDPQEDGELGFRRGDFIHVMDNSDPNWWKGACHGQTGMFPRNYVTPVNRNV

SHP2-C SH2 = assay: as above
c-Src SH2 = assay: as above
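Wherever SH2 binding enrichment of the phosphorylated peptide, bacterial display is given: peptide library displayed on the E. coli surface as eCPX fusions, selected cells deep-sequenced, score is each peptide's frequency after selection divided by its frequency in the input.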
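Wherever phosphorylation enrichment, bacterial display is given: 11-residue human phosphosite peptides and single-mutation variants displayed on the E. coli surface, counted by deep sequencing, each peptide's frequency after selection divided by its frequency in the unselected input library; frequency after pTyr selection over input frequency; kinase dosed for 20-30% of maximal phosphorylation in three min.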

EPHB2, sequence (P29323 whole entry, looked up): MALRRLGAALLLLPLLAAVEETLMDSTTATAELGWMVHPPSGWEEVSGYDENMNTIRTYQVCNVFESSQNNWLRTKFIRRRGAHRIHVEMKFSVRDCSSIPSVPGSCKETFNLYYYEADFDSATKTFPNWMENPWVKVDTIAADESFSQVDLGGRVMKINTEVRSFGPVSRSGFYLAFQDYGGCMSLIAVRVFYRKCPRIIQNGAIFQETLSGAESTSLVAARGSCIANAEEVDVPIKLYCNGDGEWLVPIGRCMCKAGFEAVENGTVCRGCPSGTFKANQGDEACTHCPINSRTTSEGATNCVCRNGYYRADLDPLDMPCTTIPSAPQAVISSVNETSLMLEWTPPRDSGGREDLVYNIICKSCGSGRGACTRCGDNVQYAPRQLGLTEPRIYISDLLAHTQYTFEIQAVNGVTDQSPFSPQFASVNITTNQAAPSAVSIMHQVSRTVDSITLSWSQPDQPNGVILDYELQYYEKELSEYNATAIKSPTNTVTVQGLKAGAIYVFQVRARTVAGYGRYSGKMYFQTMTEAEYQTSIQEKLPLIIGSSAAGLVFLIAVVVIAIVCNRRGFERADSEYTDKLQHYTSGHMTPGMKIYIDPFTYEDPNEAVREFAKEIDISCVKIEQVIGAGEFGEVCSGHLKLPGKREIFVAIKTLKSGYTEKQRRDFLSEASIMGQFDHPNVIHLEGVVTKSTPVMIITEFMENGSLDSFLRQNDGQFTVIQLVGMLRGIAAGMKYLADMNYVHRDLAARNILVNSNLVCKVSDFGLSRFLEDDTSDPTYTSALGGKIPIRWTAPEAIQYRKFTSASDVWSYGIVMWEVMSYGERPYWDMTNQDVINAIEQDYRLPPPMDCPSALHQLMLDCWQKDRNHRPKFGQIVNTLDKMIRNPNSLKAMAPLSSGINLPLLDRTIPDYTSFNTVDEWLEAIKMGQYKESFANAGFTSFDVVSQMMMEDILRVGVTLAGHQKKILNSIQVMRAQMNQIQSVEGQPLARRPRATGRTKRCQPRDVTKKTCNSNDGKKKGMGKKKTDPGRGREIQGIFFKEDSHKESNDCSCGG

Sequence | phosphorylation enrichment (AncSZ) | phosphorylation enrichment (EPHB1) | phosphorylation enrichment (EPHB2) | phosphorylation enrichment (FGFR1) | phosphorylation enrichment (FGFR3) | phosphorylation enrichment (Fer (mouse)) | phosphorylation enrichment (Fes) | phosphorylation enrichment (Fyn) | phosphorylation enrichment (Hck) | phosphorylation enrichment (Jak2) | phosphorylation enrichment (MERTK) | phosphorylation enrichment (c-Abl (mouse)) | phosphorylation enrichment (c-Src) | SH2 binding enrichment (Grb2 SH2) | SH2 binding enrichment (SHP2-C SH2) | SH2 binding enrichment (c-Src SH2)
KELALYDENWF [RPS19_Y48_P47L] | 1.5 | 8.19 | 11.5 | 0.729 | 0.947 | 7.67 | 1.43 | 1.02 | 1.41 | 1.44 | 7.19 | 1.06 | 1.39 | 0.834 | 0.611 | 0.456
CNLDTYQKRLR [PLA2G2D_Y126_R121C] | 0.65 | 0.463 | 0.582 | 0.532 | 0.462 | 0.395 | 0.624 | 0.463 | 0.475 | 0.563 | 0.434 | 0.592 | 0.473 | 0.974 | 0.78 | 0.629
ADEEEYEIIAA [FEStide_E_2014] | 1.74 | 0.662 | 0.683 | 0.635 | 1.08 | 0.73 | 1.32 | 0.619 | 0.654 | 1.45 | 0.564 | 1.09 | 0.724 | 0.711 | 0.97 | 0.521
QKMADYSNKLF [PDPR_Y104_YF] | 1.16 | 0.662 | 0.647 | 0.741 | 0.586 | 0.362 | 1.41 | 0.683 | 0.554 | 1.41 | 0.788 | 1.26 | 0.81 | 1.03 | 0.945 | 0.385
VMTLDYSKTVV [SETD2_Y770_V768L] | 0.719 | 0.571 | 0.52 | 0.419 | 0.701 | 0.449 | 0.738 | 0.37 | 0.439 | 0.775 | 0.372 | 0.643 | 0.415 | 0.845 | 0.722 | 0.458
SSVKPYRVFCD [FGB_Y266_YF] | 0.701 | 0.432 | 0.394 | 0.453 | 0.552 | 0.34 | 0.74 | 0.419 | 0.432 | 0.678 | 0.392 | 0.7 | 0.481 | 1.11 | 1.08 | 0.758
AEPPDYSPVTQ [ADGRG2_Y285_H290Q] | 1.46 | 0.435 | 0.626 | 0.514 | 0.717 | 0.546 | 1.16 | 0.444 | 0.557 | 0.95 | 0.342 | 0.99 | 0.522 | 0.82 | 0.93 | 0.441
RKKEEYKMAPY [F8_Y1990_L1994P] | 1.16 | 0.583 | 0.865 | 1.18 | 0.941 | 0.926 | 1.33 | 0.939 | 1.06 | 1.1 | 0.933 | 1.03 | 0.816 | 1.32 | 1.02 | 0.721
RRIYSYRGHLW [VHL_Y112_H110Y] | 1.45 | 1.17 | 0.659 | 1.2 | 0.725 | 1.02 | 1.68 | 0.986 | 0.667 | 0.691 | 1.24 | 0.776 | 1.26 | 0.774 | 0.465 | 0.501
TFHNTYHSHMR [IL1RAPL1_Y615_Q618H] | 0.529 | 0.367 | 0.485 | 0.67 | 0.424 | 0.44 | 0.884 | 0.4 | 0.667 | 0.725 | 0.482 | 0.538 | 0.554 | 1.09 | 1.51 | 0.861
KLQKYYRKNPD [EHHADH_Y683_Q685K] | 0.399 | 0.353 | 0.415 | 0.311 | 0.332 | 0.283 | 0.501 | 0.359 | 0.341 | 0.486 | 0.369 | 0.394 | 0.275 | 0.905 | 0.604 | 0.597
FISLIYTNFEV [GSTP1_Y109_A114V_YF] | 2.18 | 1.07 | 0.903 | 0.839 | 1.21 | 5.37 | 1.77 | 3.99 | 2.7 | 1.79 | 4.4 | 3.47 | 5.5 | 0.774 | 0.882 | 0.611
IFLGAYDRFLP [SLC22A5_Y486_V481I_YF] | 1.06 | 0.84 | 1.41 | 0.427 | 0.608 | 1.1 | 1 | 2.45 | 3.39 | 0.896 | 3.84 | 0.932 | 3.69 | 0.941 | 1.22 | 0.996
RCKNHYAAFSV [C1QTNF1_Y145_S143N] | 0.538 | 0.286 | 0.562 | 0.488 | 0.56 | 0.488 | 0.749 | 0.415 | 0.615 | 0.63 | 0.572 | 0.72 | 0.633 | 1.98 | 1.7 | 1.67
SVTCTNSPALN [TP53_Y126_Y126N] | 0.907 | 0.586 | 0.483 | 0.491 | 0.699 | 0.588 | 1.24 | 0.495 | 0.447 | 1.08 | 0.487 | 0.762 | 0.504 | 0.659 | 0.65 | 0.385
GLGVTYEQALA [MAP2_Y996] | 0.712 | 0.48 | 0.471 | 0.437 | 0.477 | 0.423 | 0.686 | 0.464 | 0.439 | 0.724 | 0.372 | 1.18 | 0.503 | 0.784 | 0.495 | 0.572
EKSREYHRLYE [PIK3R1_Y463_D464H] | 0.538 | 0.428 | 0.435 | 0.455 | 0.466 | 0.432 | 0.616 | 0.498 | 0.539 | 0.637 | 0.525 | 0.52 | 0.519 | 0.647 | 0.589 | 6.12
SLQSEYVHYGG [CDC14A_Y591] | 0.919 | 0.854 | 0.973 | 0.811 | 0.95 | 0.441 | 0.774 | 0.69 | 0.927 | 0.655 | 0.558 | 0.6 | 0.848 | 0.587 | 0.69 | 0.533
ADAHHYLCKEV [JAK2_Y382] | 0.678 | 0.851 | 0.752 | 0.588 | 0.554 | 0.488 | 0.879 | 0.485 | 0.549 | 0.837 | 0.429 | 0.644 | 0.543 | 0.849 | 0.626 | 0.518
LKVDVYRRSHK [FUT3_Y222_G223R] | 1.11 | 0.656 | 0.496 | 0.611 | 0.85 | 0.485 | 1.46 | 0.44 | 0.577 | 1.78 | 0.546 | 0.908 | 0.753 | 1.08 | 0.931 | 0.677
QFQEKYKQMEQ [HCN4_Y531_V534M_YF] | 1.24 | 0.608 | 0.576 | 0.654 | 1.05 | 0.502 | 1.87 | 0.93 | 1.53 | 1.36 | 0.554 | 0.976 | 0.366 | 0.844 | 0.956 | 0.472
KKDGPYDVVVL [PARK7_Y67_E64D] | 0.906 | 0.991 | 0.53 | 0.449 | 0.602 | 3.37 | 0.9 | 0.562 | 0.507 | 0.608 | 0.589 | 0.629 | 0.569 | 0.855 | 0.895 | 1.07
DFPGIYSGFDD [POLR1C_Y33_N32I_YF] | 1.31 | 0.692 | 0.585 | 0.531 | 0.768 | 0.782 | 1.3 | 9.82 | 6.28 | 1.1 | 0.814 | 0.806 | 7.13 | 0.707 | 0.531 | 0.579
TFEFRYLEDQD [CNOT3_Y746_R750Q_YF] | 1.89 | 0.646 | 0.44 | 0.497 | 0.903 | 0.438 | 1.44 | 0.506 | 0.622 | 1.92 | 0.643 | 0.997 | 0.597 | 0.908 | 0.865 | 0.602
SVVVPYQPPEV [TP53_Y220_E221Q] | 0.728 | 0.645 | 0.51 | 0.494 | 0.596 | 0.467 | 0.918 | 0.399 | 0.445 | 0.784 | 0.383 | 1.51 | 0.44 | 0.969 | 0.696 | 0.535
GISDEYHMIRH [GCDH_Y398_V400M] | 1.07 | 0.446 | 0.522 | 7.6 | 4.43 | 0.402 | 0.714 | 0.58 | 0.891 | 0.575 | 0.349 | 0.491 | 0.735 | 0.931 | 0.587 | 0.781
PFSNSYENSLI [EPOR_Y489_P488S_YF] | 1.4 | 1.15 | 0.498 | 0.577 | 1.51 | 0.809 | 1.21 | 0.727 | 0.78 | 1.16 | 0.402 | 0.877 | 0.862 | 29.8 | 1.13 | 5.68
LTSKPYAFTAR [NDUFS1_Y236] | 0.663 | 0.617 | 1.08 | 0.67 | 1.36 | 0.591 | 1.1 | 0.722 | 0.58 | 0.398 | 0.649 | 0.453 | 0.534 | 0.684 | 0.767 | 0.533
GSIQQYIYKQE [PRG4_Y1271] | 0.651 | 0.425 | 0.567 | 0.507 | 0.539 | 0.398 | 0.644 | 0.522 | 0.439 | 0.811 | 0.433 | 0.486 | 0.752 | 0.919 | 0.837 | 0.294
